Molecular target: wheat extractable xylanolytic enzymes
Assay: cell-based or functional assay

purified wheat endogenous xylanase inhibitor
OD (Xylazyme substrate, xylanase activity; 100 µl xylanolytic extract + 100 µl purified inhibitor; control without inhibitor OD 0.8): 0.277 OD
OD (Xylazyme substrate, xylanase activity; 250 µl xylanolytic extract + 100 µl purified inhibitor; control without inhibitor OD 0.867): 0.275 OD
OD (Xylazyme substrate, xylanase activity; 500 µl xylanolytic extract + 100 µl purified inhibitor; control without inhibitor OD 1.031): 0.414 OD

Reference: patent US20030138522A1
